The record followed here is publication PMC9170038.

The chains are these.
B1: Eterna 7753129 (Same State - Arginine B) (ssRNA)
RNA: GGGUUGAACUGAAGGAGCGAGAAAUAGAAAGUAAGAAGAUAAGCUAGUGAUGUUAGAAAUUCUCAGGUAGGUCGCAGUAAGAAUU
B2: Eterna 7652494 (Same State - Tryptophan B) (ssRNA)
RNA: AGUAGACACGCGGCCGCCACUUGAGGAUCACCCAGGUGGUGUGUACUUGAAAACAAGUGCACAUCAAGGACCGGGCGUGUCUACA
B3: Eterna 6430949 (Inverted Small Loop Exclusion NG 1) (ssRNA)
RNA: GGGACCUACGAGAAGGGCUACAUGAGGAUCACCCAUGUAAAUCUUCGGGUGGCAGGAUAUCGGCGGCUACAGGAGGGCCAGGUC
B4: Eterna 7690487 (Same State - Theophylline B) (ssRNA)
RNA: UGUCAUUGGUCUGAUACCAGUUAGACCGAUAGGUCAAAACUGGAGUGAUGUUCCCAAAAUAACCCUUGGCAGCAGACCGAUGACU
B5: Eterna 6457182 (Inverted Small Loop Same State NG 1) (ssRNA)
RNA: CGUCUAUGCAAGAAGGCAUGAAACAUGAGGAUCACCCAUGUCAAAGACAUGAGGAUAUUGCAUAGACGAAAAGUGCGAAAGCAC
B6: Eterna 7716236 (Same State - Tryptophan B) (ssRNA)
RNA: GCGCGGCAGGCGGCCGCCACUCUGACGAGCCACAGUGAUGUUGUGGUCGGAGAAACGUCUUCAUAGAGGACCGGGUUUGUUGUUC
B7: Eterna 7710140 (Exclusion - Tryptophan A) (ssRNA)
RNA: AGCUCGCAAUCCUCAGCGUCAAAGACGCGUCGAGGACCGGUACGGCCGCCACUCGACAAGAGGAUCACCCUUGUCUAAGCGAGCA
B8: Eterna 7720377 (Same State - Arginine B) (ssRNA)
RNA: GCCUAGCAGGGAAGGAGCGGCAUAAGCAUAGAUAAUAUGCAGUUAGUGAUGUUAAUACUAUGCCAGGUAGGUCGCCCUGCUAGGC
B9: Eterna 7726887 (Same State - Arginine A) (ssRNA)
RNA: AAUACCUGAGUGAUGUUCAGGGAAUCAGAAGGAGCGUCAAUUAUGACAGGUAGGUCGCUGAAGACAUGUGUGUAUACACAUGUCC
B10: Eterna 6456627 (Same State NG 3) (ssRNA)
RNA: GCGCCUCAGAACAUGAGGAUCACCCAUGUGCUGCGGGCGCCGUAGGAUAUGAUGGUACGCUACCAUCAGAAGGAUGAUGGUACC
B11: Eterna 6049957 (Exclusion 6) (ssRNA)
RNA: CUGAGUAGUCAGGAUAUGUGGUACAAAAGUACUGCAGAAGGGAUUACAUGAGGAUCACCCAUGUUUUCUUCAUG
B12: Eterna 11587 (Sensor for hsa-mir-208a) (ssRNA)
RNA: AUUUAACAAGCUUUUUGCUCGUCUUAUAAACAUGAGGAUCACCCAUGUAAUAGCGUGAGAGUAAAUAAUUUAAUAAU
B13: Eterna 6084857 (Exclusion 6) (ssRNA)
RNA: UCAAAUACUGAGGAUAUAACGACUGAAUCCGCGUUAGAAGGUAGUACAUGAGGAUCACCCAUGUCAACCAGAGG
B14: Eterna 6443759 (Same State NG 2) (ssRNA)
RNA: AUUAUAAUUGAAGGAUAUCUAUAUCCAACAUGAGGAUCACCCAUGUUGAGGAUCACCCAUGUAAAGGAGAAGGUUAAUUAUAAU
B15: Eterna 15621 (Same State 1) (ssRNA)
RNA: GCAUCACAUGAGGAUCACCCAUGUCUUCGGAGCGGAGGAUAUGGUCACUGUAAACAGUGGCCAGAAGGCUGGAUGC
B16: Eterna 7692300 (Exclusion - FMN B) (ssRNA)
RNA: UGGGCUGCCUGAGGAUAUAGAGACGAGUGAUGUUCGUGGAUAAGAGCCAGUGAUGUUGGGUUAUUUCUAGAAGGCGGGCGAACUU
B17: Eterna 7765403 (Exclusion - FMN A) (ssRNA)
RNA: AGUGAUGUAUGGCGGUUUGUCACUUAAAAUCAGGAUAUAUAAACAAAUAGAAGGGAUGGCGGAGUGAUGUUCCGCCGGCCGCCAU
B18: Eterna 6079023 (Exclusion 4) (ssRNA)
RNA: UUCACGUCAGGAUAUCCAUAUUUCCGAAAUAACGGUACUUUGGAGAAGGGACAUGAGGAUCACCCAUGUCCUCG
B19: Eterna 7627109 (Same State - Theophylline A) (ssRNA)
RNA: CUCCGAGGCUAUACUAUCCGCCUCUGUGAUACCAGAAUACCUAUAUUCCCUUGGCAGCAUCACAUGAGGAUCACCCAUGUGCCAU
B20: Eterna 7637577 (Same State - Tryptophan B) (ssRNA)
RNA: GUAGCUAUCGCGGCCGCCACUAAACCGGAAACGGAACAGGAGGAUCACCCUUGUGGCGAAAGCCAUAGGACCGGGCGAUAGCUAC
B21: Eterna 7730362 (Exclusion - Arginine B) (ssRNA)
RNA: GGACUAACCAGAAGGAGCGGCGCGCAGAAACUGCUAAUUCCUCCGCACGAGGAUCACCCGUGUCAGGUAGGUCGCUGGUUAGUCG
B22: Eterna 6420697 (Small Loop Exclusion NG 3) (ssRNA)
RNA: AUCGUUGACUGGACGAGAAUAGGGCAGGAUAUACAUGAGGAUCACCCAUGUGAAGCACGAAAGAGGUAGAAGGGCCCACGUCAU
B23: Eterna 9759 (Exclusion 4) (ssRNA)
RNA: GUCGAGUGAGGAUAUGGUGAGUAGUGCCUGAGCGCUGCUCACCAGAAGGCACAUGAGGAUCACCCAUGUAUAGC
B24: Eterna 7708077 (Same State - FMN A) (ssRNA)
RNA: UUUUACGAGUGAUGUUCGUAAUGUAAUAGUUAGGAUAUCGUUUUUUCGAGAAGGAACUUCGAAGUGAUACGAAAGUAUCGCUUCG
B25: Eterna 7687680 (Same State - Theophylline A) (ssRNA)
RNA: AUUGAUAUAUAUAUUUGAUUUUUAUGUGAUACCAGACAAGGCAUAGUCCCUUGGCAGCACUUUAUAUUUACGAGUGAUGUUCGUA
B26: Eterna 7690543 (Exclusion - Theophylline B) (ssRNA)
RNA: AUUUAAUUAACUGAUACCAGACUUUAUGUAUUUAUUAAAACUAGUGAUGUUAGUUUAUCUGUCCCUUGGCAGCAGUUUCUACUUA
B27: Eterna 6411926 (Small Loop Same State NG 1) (ssRNA)
RNA: GUAUUUAGAUAAGGAUAUAAGUCUAUGACAUGAGGAUCACCCAUGUGUGUCUUAGAAGGUAUUUGGGUAAUAUUGUUACAGUAA
B28: Eterna 7729660 (Same State - Arginine B) (ssRNA)
RNA: ACGAAGGAUGGAAGGAGCGCUCGUCAGUCCUGCGAGUGAUGUUCGUGGGUAAAUAGUCGCGAGCAGGUAGGUCGCCAUCUUGAGC
B29: Eterna 6389671 (Inverted Exclusion NG 2) (ssRNA)
RNA: ACUUGUAAGUAGAAGGUAGUCAUUAUAUUAAUCAUGUAAACAUGAGGAUCACCCAUGUAGAGUACUAAGGAUAUACAUCGAUAG
B30: Eterna 7710839 (Same State - Theophylline A) (ssRNA)
RNA: UAAUAAAUAAAUCCAAGGUGAAGGUCAGAUACCAGCCAGAUAACUGGCCCUUGGCAGCUGAAUAAGCUUGAGGAUCACCCAAGUA
B31: Eterna 7690461 (Exclusion - Theophylline A) (ssRNA)
RNA: UAAUUUAUGUCUUUAAUAUAAUAAUCAGAUACCAGUGAUUUAUGACACCCUUGGCAGCUGUAUAGAGUGAUGUUCUUAUACAUAA
B32: Eterna 7712973 (Exclusion - Theophylline A) (ssRNA)
RNA: AGACCUCAGUGAUGUUGAGGUAACACUGAUACCAGCGACUUAAUUCGCCCUUGGCAGCAGUCCACCGAGGUAUCUGAUUAGGUCA
B33: Eterna 6424838 (Exclusion NG 2) (ssRNA)
RNA: GCCGGUUCCCUAGGAUAUGUACAUGAGGAUCACCCAUGUGCCUCUAGAGCCGGAACAGGGCAUGUACAGAAGGAGGGUCGACCC
B34: Eterna 6430991 (Inverted Small Loop Exclusion NG 1) (ssRNA)
RNA: CCUCGCUGUUAGAAGGCACCUUCGGCUUUGGCUUUUGGAGUUGGGCGAUGGUGAGGAUAUAACAUGAGGAUCACCCAUGUUCAA
B35: Eterna 7691153 (Same State - Arginine B) (ssRNA)
RNA: AAUGCAUAGUGAAGGAGCGCGAUUUGCAGUGAUGUUGCAAAUUUAAACAAUCUUAUCUUUUCGCAGGUAGGUCGCACUAUGCAUA
B36: Eterna 7682639 (Same State - Theophylline A) (ssRNA)
RNA: GAAGGUCAAAGACCUUCGUGCACAUCUGAUACCAGUCGCGAAAGCGACCCUUGGCAGCAGGGCAGUGAUGUUGCCAGUGCACAAA
B37: Eterna 6429368 (Inverted Exclusion NG 2) (ssRNA)
RNA: AUGUCUUAGUAGAAGGGACAUCGGCUGGUAAGCAUCAUCUCCUUCUCACAUGAGGAUCACCCAUGUCAGGAUAUACUAAGAUAC
B38: Eterna 6056927 (Brourd's mod of Exclusion 4) (ssRNA)
RNA: GGUCCUUCUGUUAGGAUAUGCUAUGGGCUUCCGCAGUAGAAGGAACAUGAGGAUCACCCAUGUCCGAUGCCGUA
B39: Eterna 7729929 (Exclusion - Tryptophan B) (ssRNA)
RNA: GGAUAGGACACGGCCGCCACUAGCUAGGAUACUAGCAACAUUUCCUCAUCUGAGGAUCACCCAGGUAGGACCGGGUGUCCUAUCG

One may read the Kd as the concentration at which binding is half-saturated. A high value points to lower affinity.

For this series, the target named is MS2 coat protein, dlFG mutant (Escherichia phage MS2, UniProt P03612, del68-81insG). The experiment in a line: 4 mM Mg2+; no ligand; RNA-MaP array; 100 mM Tris-HCl pH 7.5, 80 mM KCl, 4 mM MgCl2, 0.1 mg/mL BSA, 1 mM DTT, 0.01 mg/mL yeast tRNA, 0.01% Tween-20; protein 1.5 nM to 3 uM; 37 C (Table S3). Particulars: chain copies: 2; label: tethered by stalled RNA polymerase.
On to B1, for which the dissociation constant (Kd) was greater than 3000 nM. On to B2, for which binding was characterised by a dissociation constant (Kd) of 12.7 nM. In turn, B3 gave an equilibrium dissociation constant (Kd) of 8.57 nM. In turn, B4 showed a dissociation constant (Kd) greater than 3000 nM. Turning to B5, the dissociation constant (Kd) is 4.44 nM.

The molecule B6 displayed a dissociation constant Kd greater than 3000 nM. With B7 the figure was 330 nM; with B8, greater than 3000 nM. With B9, the equilibrium dissociation constant (Kd) is greater than 3000 nM. The figure for B10 is 4.99 nM; for B11 it is 52 nM; for B12 it is 11.3 nM. B13 displayed a Kd of 17.2 nM. With B14, binding was put at a Kd of 101 nM. In turn, B15 showed a dissociation constant (Kd) of 32.4 nM. The figure for B16 is greater than 3000 nM; for B17 it is greater than 3000 nM; for B18 it is 17.9 nM. B19: the dissociation constant (Kd) came out at 13.2 nM. In turn, B20 gave a dissociation constant (Kd) of 483 nM.

In the case of B21, the affinity, expressed as Kd, was 10 nM. With B22 the figure was 16.1 nM. On to B23, for which binding was characterised by a dissociation constant (Kd) of 16.7 nM. The Kd values of the last two molecules are within 1.5-fold of each other. The molecule B24 returned a Kd greater than 3000 nM. B25 registered a Kd greater than 3000 nM. In the case of B26, the Kd is greater than 3000 nM. B27 had a Kd of 44.2 nM.

Molecule B28 returned a dissociation constant Kd greater than 3000 nM. Regarding B29, the affinity, expressed as Kd, was 15.2 nM.

For B30, the equilibrium dissociation constant (Kd) worked out at 36.1 nM.

On to B31, for which the equilibrium dissociation constant (Kd) was greater than 3000 nM. The figure for B32 is greater than 3000 nM; for B33 it is 7.13 nM.

B34 displayed a Kd of 9.79 nM. For the molecule B35, the equilibrium dissociation constant (Kd) is greater than 3000 nM. Regarding B36, the equilibrium dissociation constant (Kd) was greater than 3000 nM. For the molecule B37, the equilibrium dissociation constant (Kd) was 12.8 nM. As to B38, the Kd is 67.5 nM.

Take B39: binding was characterised by a dissociation constant (Kd) of 563 nM.
